Key:
GST-Smad1 = GST-Smad1 (UniProt Q15797)
GST-Smad3deltaMH1 = GST-Smad3deltaMH1 (UniProt P84022)
GST-Smad2 (full-length) = GST-Smad2 (full-length) (UniProt Q15796)
Sequence of GST-Smad2 (full-length) (Q15796 whole entry): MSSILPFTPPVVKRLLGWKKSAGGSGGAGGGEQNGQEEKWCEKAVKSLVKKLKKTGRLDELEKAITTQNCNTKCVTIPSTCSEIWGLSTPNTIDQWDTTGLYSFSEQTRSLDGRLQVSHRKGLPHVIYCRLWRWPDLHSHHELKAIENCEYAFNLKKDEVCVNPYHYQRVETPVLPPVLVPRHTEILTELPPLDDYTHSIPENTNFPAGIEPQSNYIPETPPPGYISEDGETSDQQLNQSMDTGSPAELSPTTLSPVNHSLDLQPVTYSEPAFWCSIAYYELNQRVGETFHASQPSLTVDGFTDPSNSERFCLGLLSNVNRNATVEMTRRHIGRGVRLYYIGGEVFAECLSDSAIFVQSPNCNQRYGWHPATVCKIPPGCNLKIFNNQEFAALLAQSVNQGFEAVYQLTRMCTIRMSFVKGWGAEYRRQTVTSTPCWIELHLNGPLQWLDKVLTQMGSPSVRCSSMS

Sequence of GST-Smad3deltaMH1 (P84022 137-425, stated change not applied): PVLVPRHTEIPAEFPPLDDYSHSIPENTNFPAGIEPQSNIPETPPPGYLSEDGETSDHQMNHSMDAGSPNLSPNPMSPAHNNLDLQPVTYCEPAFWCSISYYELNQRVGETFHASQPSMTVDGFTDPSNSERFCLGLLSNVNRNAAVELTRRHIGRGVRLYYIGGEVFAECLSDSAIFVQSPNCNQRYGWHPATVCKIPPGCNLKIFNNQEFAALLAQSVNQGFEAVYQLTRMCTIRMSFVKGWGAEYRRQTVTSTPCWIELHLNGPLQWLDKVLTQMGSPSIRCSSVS
Sequence of GST-Smad1 (Q15797 whole entry): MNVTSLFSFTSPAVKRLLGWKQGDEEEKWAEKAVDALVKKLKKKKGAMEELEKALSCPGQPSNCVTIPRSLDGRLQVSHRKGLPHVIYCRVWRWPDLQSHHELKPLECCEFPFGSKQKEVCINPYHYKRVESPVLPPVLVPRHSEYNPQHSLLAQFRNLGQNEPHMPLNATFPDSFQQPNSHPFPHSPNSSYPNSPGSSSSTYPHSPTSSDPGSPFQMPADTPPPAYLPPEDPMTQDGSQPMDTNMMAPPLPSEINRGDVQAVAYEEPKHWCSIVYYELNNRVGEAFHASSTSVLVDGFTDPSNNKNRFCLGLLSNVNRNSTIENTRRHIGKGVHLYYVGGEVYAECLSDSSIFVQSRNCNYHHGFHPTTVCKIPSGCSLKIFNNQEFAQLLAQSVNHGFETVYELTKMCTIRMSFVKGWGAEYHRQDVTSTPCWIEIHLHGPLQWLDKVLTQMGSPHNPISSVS

GST-TβR-I (GST fused to the cytoplasmic part, residues 148-503, of constitutively active TβR-I T204D, FLAG-tagged at the C-terminus)
phosphorylation of substrate in in vitro kinase assay (32P, SDS-PAGE, phosphorimager) (GST-Smad1): no phosphorylation of GST-Smad1 was observed
phosphorylation of substrate in in vitro kinase assay (32P, SDS-PAGE, phosphorimager) (GST-Smad3deltaMH1): Purified GST-TβR-I kinase efficiently phosphorylated itself, as well as the C-terminal part of Smad3 and full-length GST-Smad2 as exogenous substrates
phosphorylation of substrate in in vitro kinase assay (32P, SDS-PAGE, phosphorimager) (GST-Smad2 (full-length)): Purified GST-TβR-I kinase efficiently phosphorylated itself, as well as the C-terminal part of Smad3 and full-length GST-Smad2 as exogenous substrates
